Test results reported in patent publication US20150175666A1 (YEDA RESEARCH AND DEVELOPMENT, published 2015).
Ends that are not written are not given here. * marks the point of attachment. NBD = O=[N+]([O-])c1ccc(*)c2nonc12

B1: pep 6 (SNKSLEQIWNHTTWMEWD), gp41 derived peptide, unlabeled (peptide)
peptide: SNKSLEQIWNHTTWMEWD
B2: control mutant (W/G) peptide (SNKSLEQIGNHTTGMEGD, SEQ ID NO: 9), unlabeled (peptide)
peptide: SNKSLEQIGNHTTGMEGD
notes: Unlabeled form used in the NBD-CP fluorescence experiment
B3: control mutant peptide (SNKSLEQIWNHTTWMGWG, SEQ ID NO: 10), unlabeled (peptide)
peptide: SNKSLEQIWNHTTWMGWG
notes: pep 6 with the conserved acidic residues (Glu and Asp) mutated to Gly

Columns and labels:
[1] = biological target: T1, TCR of MOG35-55-specific murine line T cells (mMOG35-55 T cells) (mouse, UniProt A2KF29); assay: cell-based or functional assay
T1 sequence (A2KF29 whole entry): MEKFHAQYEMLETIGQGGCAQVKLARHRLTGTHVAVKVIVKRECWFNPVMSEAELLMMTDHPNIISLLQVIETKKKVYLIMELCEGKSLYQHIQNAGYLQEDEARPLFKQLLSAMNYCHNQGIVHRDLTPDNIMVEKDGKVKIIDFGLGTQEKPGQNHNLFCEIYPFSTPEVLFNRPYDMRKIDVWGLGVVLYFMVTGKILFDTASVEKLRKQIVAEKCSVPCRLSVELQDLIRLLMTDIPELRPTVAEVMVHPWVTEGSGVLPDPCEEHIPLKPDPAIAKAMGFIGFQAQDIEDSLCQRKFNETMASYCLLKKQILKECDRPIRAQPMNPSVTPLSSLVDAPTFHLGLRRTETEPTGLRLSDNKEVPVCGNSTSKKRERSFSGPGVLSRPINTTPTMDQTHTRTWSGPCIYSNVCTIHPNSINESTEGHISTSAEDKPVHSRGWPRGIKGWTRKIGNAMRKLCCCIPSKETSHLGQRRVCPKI

[2] = biological target: T1, TCR of MOG35-55-specific murine line T …; assay: cell-based or functional assay; remark: listed apart in the source
[3] = biological target: T2, NBD-labeled core peptide of the TCRα TMD (GLRILLLKV; SEQ ID NO: 14); assay: NBD fluorescence of NBD-CP on PC:Chol LUVs, sequential doses of unlabeled peptide
T2 construct: also called NBD-CP; CP
T2 peptide: {NBD}-GLRILLLKV

Binder	inhibitory concentration at 50% proliferation (IC50), MOG35-55-specific T-cell proliferation [1]	IC50 (µM), inhibition of MOG35-55-specific T-cell proliferation [2]	binding result [3]
B1	1 µM	0.55 µM	binds
B2			binds
B3			binds
